Test results taken from PMC6497155 (ACS infectious diseases, 2018).

How the values were obtained:
ClpP2 = assay: Proteolytic activity of ClpP2 with DTT; format: biochemical, C. difficile; settings: varying concentrations of DTT; incubation times exceeding 48 h
ClpX = settings: 200 nM ClpP, 50 nM ClpX; relative to ClpX alone
[1] = Storage stability and concentration limit of purified ClpP; format: physicochemical; settings: purified protein in activity buffer
[2] = Thermal stability of ClpP homotetradecamers; format: physicochemical

| Compound | Stimulation of ClpP2 proteolytic activity by DTT (ClpP2) | Rate reduction of ClpX ATP hydrolysis (ClpX) | Concentration reached without any sign of precipitation [1] | Tm ([2]; no ADEP, SYPRO Orange, activity buffer (25 mM HEPES, 100 mM KCl, 5 mM MgCl2, 1 mM DTT, 10% glycerol), 25 to 85 °C in 0.3 °C increments, triplicate, Boltzmann fit) [°C] | Effect of reduced conditions on thermal stability ([2]; reduced conditions) | Concentration above which less stability is exhibited [1] |
| --- | --- | --- | --- | --- | --- | --- |
| O[C@@H](CS)[C@@H](O)CS (racemic) [dithiothreitol (DTT), dithiothreitol] | failed to stimulate proteolytic activity | – | – | – | – | – |
| ClpP1: recombinant C. difficile ClpP1 (YP_001089821.1), homotetradecamer, prepared from ΔEcClpP E. coli unless otherwise noted | – | ~ 18% | ~ 60 mg/mL | – | – | – |
| ClpP2: recombinant C. difficile ClpP2 (YP_001089868.1), homotetradecamer | – | ~ 7% | – | 46.5 | no significant effect on the thermal stability | exceeding 12.5 mg/mL |
